Reference: publication PMC8121815 (Nature Communications, 2021)

Experiments:
[1] = biological target: T1, unliganded hTOM70 (cytoplasmic segment of human TOM70) (human); assay: ITC
T1 sequence (O94826 whole entry, looked up): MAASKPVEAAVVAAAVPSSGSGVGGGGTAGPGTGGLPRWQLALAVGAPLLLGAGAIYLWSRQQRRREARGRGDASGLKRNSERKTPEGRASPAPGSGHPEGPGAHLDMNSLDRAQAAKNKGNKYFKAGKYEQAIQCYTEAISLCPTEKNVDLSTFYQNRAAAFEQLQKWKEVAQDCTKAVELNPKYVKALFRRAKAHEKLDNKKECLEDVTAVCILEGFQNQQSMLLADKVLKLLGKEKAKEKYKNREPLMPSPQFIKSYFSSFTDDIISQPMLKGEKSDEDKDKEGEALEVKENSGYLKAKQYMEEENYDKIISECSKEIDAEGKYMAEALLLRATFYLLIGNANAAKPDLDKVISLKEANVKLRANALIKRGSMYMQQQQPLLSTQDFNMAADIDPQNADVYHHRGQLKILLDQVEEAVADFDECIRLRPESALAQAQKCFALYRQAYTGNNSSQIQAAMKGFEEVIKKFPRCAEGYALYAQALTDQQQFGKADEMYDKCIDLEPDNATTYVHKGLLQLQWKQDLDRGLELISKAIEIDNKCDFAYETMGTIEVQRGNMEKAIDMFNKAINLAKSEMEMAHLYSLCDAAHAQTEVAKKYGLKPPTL

hTOM70/N-peptide complex = hTOM70/N-peptide complex (Homo sapiens, UniProt O94826); type: binding
[2] = biological target: T2, SARS-CoV-2 orf9b with an N-terminal His-tag, co-expressed with hTOM70 (SARS-CoV-2, UniProt P0DTD2 1-97); assay: SEC + AUC; conditions: both partners purified
T2 construct: also called intact orf9b
T2 sequence (P0DTD2 whole entry): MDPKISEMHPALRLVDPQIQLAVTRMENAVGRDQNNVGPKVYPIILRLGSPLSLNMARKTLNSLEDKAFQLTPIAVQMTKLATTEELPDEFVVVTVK

“C-peptide (SARS-CoV-2 orf9b core sequence 44-70) (from UniProt P0DTD2 44-70)” was tested, and the dH [1] was 2.65 kcal/mol.

For `CC[C@H](C)[C@H](N)C(=O)N[C@H](C(=O)N[C@@H](CC(C)C)C(=O)N[C@@H](CCCNC(=N)N)C(=O)N[C@@H](CC(C)C)C(=O)NCC(=O)N[C@@H](CO)C(=O)N1CCC[C@H]1C(=O)N[C@@H](CC(C)C)C(=O)N[C@@H](CO)C(=O)N[C@@H](CC(C)C)C(=O)N[C@@H](CC(N)=O)C(=O)N[C@@H](CCSC)C(=O)N[C@@H](C)C(=O)N[C@@H](CCCNC(=N)N)C(=O)N[C@@H](CCCCN)C(=O)N[C@H](C(=O)N[C@@H](CC(C)C)C(=O)N[C@@H](CC(N)=O)C(=O)N[C@@H](CO)C(=O)N[C@@H](CC(C)C)C(=O)N[C@@H](CCC(=O)O)C(=O)N[C@@H](CC(=O)O)C(=O)N[C@@H](CCCCN)C(=O)N[C@@H](C)C(=O)N[C@@H](Cc1ccccc1)C(=O)N[C@@H](CCC(N)=O)C(=O)O)[C@@H](C)O)[C@@H](C)CC` [C-peptide], the “ΔH, enthalpy variation” value (hTOM70/N-peptide complex) was 0.981 ± 0.024 kcal/mol and the “ΔS, entropy variation” value (hTOM70/N-peptide complex) was 32.5.

B1: hTOM70 ΔN2 (106-608), co-expressed with orf9b (domain or fragment, human, UniProt O94826 106-608, looked up)
chain: LDMNSLDRAQAAKNKGNKYFKAGKYEQAIQCYTEAISLCPTEKNVDLSTFYQNRAAAFEQLQKWKEVAQDCTKAVELNPKYVKALFRRAKAHEKLDNKKECLEDVTAVCILEGFQNQQSMLLADKVLKLLGKEKAKEKYKNREPLMPSPQFIKSYFSSFTDDIISQPMLKGEKSDEDKDKEGEALEVKENSGYLKAKQYMEEENYDKIISECSKEIDAEGKYMAEALLLRATFYLLIGNANAAKPDLDKVISLKEANVKLRANALIKRGSMYMQQQQPLLSTQDFNMAADIDPQNADVYHHRGQLKILLDQVEEAVADFDECIRLRPESALAQAQKCFALYRQAYTGNNSSQIQAAMKGFEEVIKKFPRCAEGYALYAQALTDQQQFGKADEMYDKCIDLEPDNATTYVHKGLLQLQWKQDLDRGLELISKAIEIDNKCDFAYETMGTIEVQRGNMEKAIDMFNKAINLAKSEMEMAHLYSLCDAAHAQTEVAKKYGLKPPTL
notes: also called TOM70 (106-608); cytosolic domain of hTOM70
With B1 the “stoichiometry N” value [2] was 1.
